Data as given in paper PMC10698503, “Phosphatase specificity principles uncovered by MRBLE:Dephos and global substrate identification” (Molecular Systems Biology, 2023).

Each substance was assayed against His-PP1γ (UniProt P36873) (assay: ITC; peptide (approximately 450 µM, syringe) titrated into PP1γ (~35 µM, cell); 25°C; 50 mM sodium phosphate, 150 mM NaCl, 0.5 mM TCEP, pH 7.5; single-site model).
His-PP1γ, sequence (P36873 whole entry): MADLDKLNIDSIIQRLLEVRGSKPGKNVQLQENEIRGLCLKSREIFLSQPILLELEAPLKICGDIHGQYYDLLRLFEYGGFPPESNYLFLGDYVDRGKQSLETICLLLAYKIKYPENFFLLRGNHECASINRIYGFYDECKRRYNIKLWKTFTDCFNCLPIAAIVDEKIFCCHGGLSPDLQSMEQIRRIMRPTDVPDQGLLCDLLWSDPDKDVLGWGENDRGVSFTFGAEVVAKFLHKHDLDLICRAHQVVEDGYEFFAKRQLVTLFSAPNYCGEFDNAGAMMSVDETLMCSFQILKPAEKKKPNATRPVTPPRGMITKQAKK
Substance “KNL1 1441-1455 pS1448 peptide KLNSKRV(pS)FKLPKDQW” has a Kd of 1.73 µM. “Nipp1 197-209 pT202 peptide AKNSRV(pT)FSEDDEIW” gave a Kd of 4.51 µM. Sororin 76-96 pS79 peptide PRR(pS)… was tested, and the Kd was 7.24 µM. Sororin 76-96 pS83 peptide PRRSPRI(pS)… gave a Kd of 3.46 µM.
